Assay results published in article PMC8170832.

Target: endogenous HSF1 (heat shock factor 1), mouse embryonic fibroblasts (mouse (endogenous in MEFs)) (UniProt P38532)
Assay: co-IP

Chain of UniProt P38532 (P38532 whole entry): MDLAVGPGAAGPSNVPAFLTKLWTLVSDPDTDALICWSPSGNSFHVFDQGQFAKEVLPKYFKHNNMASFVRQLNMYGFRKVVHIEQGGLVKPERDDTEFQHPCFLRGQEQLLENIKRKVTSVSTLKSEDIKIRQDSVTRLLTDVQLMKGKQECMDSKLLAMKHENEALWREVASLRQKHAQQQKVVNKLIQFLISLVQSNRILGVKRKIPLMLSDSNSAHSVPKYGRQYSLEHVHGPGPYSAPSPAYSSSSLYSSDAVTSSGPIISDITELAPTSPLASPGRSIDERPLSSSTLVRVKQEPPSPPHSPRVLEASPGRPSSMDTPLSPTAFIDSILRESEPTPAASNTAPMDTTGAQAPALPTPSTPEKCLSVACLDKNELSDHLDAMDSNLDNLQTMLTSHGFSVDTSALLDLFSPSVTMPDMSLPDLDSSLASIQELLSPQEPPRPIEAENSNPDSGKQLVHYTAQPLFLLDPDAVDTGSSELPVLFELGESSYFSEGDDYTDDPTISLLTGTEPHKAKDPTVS

Substance	percent of total cellular AMPKα depleted by IP of HSF1 [%]	percent of phospho-AMPKα depleted by IP of HSF1 [%]
endogenous AMPK (AMP-activated protein kinase), mouse embryonic fibroblasts (from UniProt Q5EG47 1-559; Q9R078 1-270; Q91WG5 1-566) (complex)	66	
endogenous phospho-AMPKα (Thr172), mouse embryonic fibroblasts (from UniProt Q5EG47 1-559; Q9R078 1-270; Q91WG5 1-566) (complex)		25
